PMC10234869

B1: Frey regulator of sperm-oocyte fusion 1 with C-terminal 3xFLAG tag (Frey1-3xFLAG), wild type [murine] / Signal Peptide Peptidase-like 2c, C-terminally myc-tagged (SPPL2c-myc) [murine] (parent)
chain 1: MVLAMLGALYPRAGLSLFLFYLILAGALLRPQPQRSQQSVPEEFSAPLELLQPLSGLVDDYGLRPKHPRPGGPRPLLSQAQQRKRDGPNMADYYYDVNL
chain 2: EYGLVRVVSKNWSKDYCVLYSSDYVNLPRDLHHAPLLSLHDGTKTPWCPDEDSFHQAQDSSPRQRPLHQTTTMVTRGNCSFYAKGWLAQDQGAQGLLIVSRARNQQCSDTISKPQDPSKPWPALTIPVAVLRYTDMLDIVSHTYGDTDVRVAMFAPLEPVTDYNMAIIFILAVGTVAAGGYWAGLMEANKLQRRQAQRGGGLGGHNQQQTVAAERSQRAWEDDDFEDAPMDFTPAMTGAVVTMSCSIMILLYFFYDCFVYVMIGIFSLGASTGLYSCLAPILCHLPLWRYQWVLPGQRVSVTWPLLLLAGLCAMVTVLWVIHRNEDHWAWLLQDTLGVAYCLFVLRRVRLPTFKNCTLFLLALLAFDVFFVFITPLFTKTGESIMVEVASGPADSSSHERLPMVLKVPRLSFSALTLCNQPFSILGFGDIVVPGFLVAYCHRFDMQVQSRQVYYMACTVAYAVGLLVTFVAMILMQMGQPALLYLVSSTLLTSLAVATCRQEFTLFWTGQGRAKIPAEPVAQPCIASAVGSKMKLEDAKDSRTTNRFEQAVDGESGDLESSTGDDMAEMVTLSEDEATSPEGHSESSEGWSDTNLDPNELPSGSPMALEAMLIPLIQPIPHPSELGHIRTQSRVHDSSLPWMGLHKRKGLKVKKSMSAQAPL

Variants of: B1
Test: co-immunoprecipitation (anti-FLAG IP, Western blot quantification)
Conditions: with Signal Peptide Peptidase-like 2c, transiently transfected HEK cells, n = 6, parent: 100, read off a plot

Row | Variant | percent of parent (% of Frey1 Wt)
1 | chain 1 MVLAMLGALYLRALLTLFLFYLILAAALLRPQPQRSQQSVPEEFSAPLELLQPLSGLVDDYGLRPKHPRPGGPRPLLSQAQQRKRDGPNMADYYYDVNL [chain 1 P11L G14L S16T G26A] | 17

Variants of: B1
Test: competition co-immunoprecipitation pulling on Frey1 (anti-FLAG IP, Western blot quantification)
Conditions: with Signal Peptide Peptidase-like 2c, co-expression of HA-HO-1 as competitor, value is relative to the same Frey1 variant without HA-HO-1 (EV = 100), transiently transfected HEK cells, n = 3, parent: 100, read off a plot

Row | Variant | co-precipitated SPPL2c, percent of no-competitor control
2 | chain 1 MVLAMLGALYLRALLTLFLFYLILAAALLRPQPQRSQQSVPEEFSAPLELLQPLSGLVDDYGLRPKHPRPGGPRPLLSQAQQRKRDGPNMADYYYDVNL [chain 1 P11L G14L S16T G26A] | 59 % of EV
